{"source": "patent US12258594B2", "about": "“Cas proteins with reduced immunogenicity and methods of screening thereof” (THE BROAD INSTITUTE, INC., priority 2018, dated 2025)", "origin": "cited, not measured here"}
{"test_system": "target RNA", "conditions": "LbuCas13a alanine mutants"}
{"molecule": "Lys558: LbuCas13a with alanine substituted for Lys558 (protein, UniProt C7NBY4 1-1159, looked up, variant K558A) CRISPR-associated …: MKVTKVGGISHKKYTSEGRLVKSESEENRTDERLSALLNMRLDMYIKNPSSTETKENQKRIGKLKKFFSNKMVYLKDNTLSLKNGKKENIDREYSETDILESDVRDKKNFAVLKKIYLNENVNSEELEVFRNDIKKKLNKINSLKYSFEKNKANYQKINENNIEKVEGKSKRNIIYDYYRESAKRDAYVSNVKEAFDKLYKEEDIAKLVLEIENLTKLEKYKIREFYHEIIGRKNDKENFAKIIYEEIQNVNNMKELIEKVPDMSELKKSQVFYKYYLDKEELNDKNIKYAFCHFVEIEMSQLLKNYVYKRLSNISNDKIKRIFEYQNLKKLIENKLLNKLDTYVRNCGKYNYYLQDGEIATSDFIARNRQNEAFLRNIIGVSSVAYFSLRNILETENENDITGRMRGKTVKNNKGEEKYVSGEVDKIYNENKKNEVKENLKMFYSYDFNMDNKNEIEDFFANIDEAISSIRHGIVHFNLELEGKDIFAFKNIAPSEISKKMFQNEINEKKLKLKIFRQLNSANVFRYLEKYKILNYLKRTRFEFVNKNIPFVPSFTALYSRIDDLKNSLGIYWKTPKTNDDNKTKEIIDAQIYLLKNIYYGEFLNYFMSNNGNFFEISKEIIELNKNDKRNLKTGFYKLQKFEDIQEKIPKEYLANIQSLYMINAGNQDEEEKDTYIDFIQKIFLKGFMTYLANNGRLSLIYIGSDEETNTSLAEKKQEFDKFLKKYEQNNNIKIPYEINEFLREIKLGNILKYTERLNMFYLILKLLNHKELTNLKGSLEKYQSANKEEAFSDQLELINLLNLDNNRVTEDFELEADEIGKFLDFNGNKVKDNKELKKFDTNKIYFDGENIIKHRAFYNIKKYGMLNLLEKIADKAGYKISIEELKKYSNKKNEIEKNHKMQENLHRKYARPRKDEKFTDEDYESYKQAIENIEEYTHLKNKVEFNELNLLQGLLLRILHRLVGYTSIWERDLRFRLKGEFPENQYIEEIFNFENKKNVKYKGGQIVEKYIKFYKELHQNDEVKINKYSSANIKVLKQEKKDLYIRNYIAHFNYIPHAEISLLEVLENLRKLLSYDRKLKNAVMKSVVDILKEYGFVATFKIGADKKIGIQTLESEKIVHLKNLKKKKLMTDRNSEELCKLVKIMFEYKMEEKKSEN", "crRNA-guided target RNA cleavage activity": "dramatically reduced crRNA-guided RNA cleavage"}
{"molecule": "Tyr601Ala: Tyr601Ala mutant of LbuCas13a (protein, UniProt C7NBY4 1-1159, looked up, variant Y601A) CRISPR-associated …: MKVTKVGGISHKKYTSEGRLVKSESEENRTDERLSALLNMRLDMYIKNPSSTETKENQKRIGKLKKFFSNKMVYLKDNTLSLKNGKKENIDREYSETDILESDVRDKKNFAVLKKIYLNENVNSEELEVFRNDIKKKLNKINSLKYSFEKNKANYQKINENNIEKVEGKSKRNIIYDYYRESAKRDAYVSNVKEAFDKLYKEEDIAKLVLEIENLTKLEKYKIREFYHEIIGRKNDKENFAKIIYEEIQNVNNMKELIEKVPDMSELKKSQVFYKYYLDKEELNDKNIKYAFCHFVEIEMSQLLKNYVYKRLSNISNDKIKRIFEYQNLKKLIENKLLNKLDTYVRNCGKYNYYLQDGEIATSDFIARNRQNEAFLRNIIGVSSVAYFSLRNILETENENDITGRMRGKTVKNNKGEEKYVSGEVDKIYNENKKNEVKENLKMFYSYDFNMDNKNEIEDFFANIDEAISSIRHGIVHFNLELEGKDIFAFKNIAPSEISKKMFQNEINEKKLKLKIFRQLNSANVFRYLEKYKILNYLKRTRFEFVNKNIPFVPSFTKLYSRIDDLKNSLGIYWKTPKTNDDNKTKEIIDAQIYLLKNIYAGEFLNYFMSNNGNFFEISKEIIELNKNDKRNLKTGFYKLQKFEDIQEKIPKEYLANIQSLYMINAGNQDEEEKDTYIDFIQKIFLKGFMTYLANNGRLSLIYIGSDEETNTSLAEKKQEFDKFLKKYEQNNNIKIPYEINEFLREIKLGNILKYTERLNMFYLILKLLNHKELTNLKGSLEKYQSANKEEAFSDQLELINLLNLDNNRVTEDFELEADEIGKFLDFNGNKVKDNKELKKFDTNKIYFDGENIIKHRAFYNIKKYGMLNLLEKIADKAGYKISIEELKKYSNKKNEIEKNHKMQENLHRKYARPRKDEKFTDEDYESYKQAIENIEEYTHLKNKVEFNELNLLQGLLLRILHRLVGYTSIWERDLRFRLKGEFPENQYIEEIFNFENKKNVKYKGGQIVEKYIKFYKELHQNDEVKINKYSSANIKVLKQEKKDLYIRNYIAHFNYIPHAEISLLEVLENLRKLLSYDRKLKNAVMKSVVDILKEYGFVATFKIGADKKIGIQTLESEKIVHLKNLKKKKLMTDRNSEELCKLVKIMFEYKMEEKKSEN", "crRNA-guided target RNA cleavage activity": "reduced target RNA cleavage activity"}
{"molecule": "Lys942Ala: Lys942Ala mutant of LbuCas13a (protein, UniProt C7NBY4 1-1159, looked up, variant K942A) CRISPR-associated …: MKVTKVGGISHKKYTSEGRLVKSESEENRTDERLSALLNMRLDMYIKNPSSTETKENQKRIGKLKKFFSNKMVYLKDNTLSLKNGKKENIDREYSETDILESDVRDKKNFAVLKKIYLNENVNSEELEVFRNDIKKKLNKINSLKYSFEKNKANYQKINENNIEKVEGKSKRNIIYDYYRESAKRDAYVSNVKEAFDKLYKEEDIAKLVLEIENLTKLEKYKIREFYHEIIGRKNDKENFAKIIYEEIQNVNNMKELIEKVPDMSELKKSQVFYKYYLDKEELNDKNIKYAFCHFVEIEMSQLLKNYVYKRLSNISNDKIKRIFEYQNLKKLIENKLLNKLDTYVRNCGKYNYYLQDGEIATSDFIARNRQNEAFLRNIIGVSSVAYFSLRNILETENENDITGRMRGKTVKNNKGEEKYVSGEVDKIYNENKKNEVKENLKMFYSYDFNMDNKNEIEDFFANIDEAISSIRHGIVHFNLELEGKDIFAFKNIAPSEISKKMFQNEINEKKLKLKIFRQLNSANVFRYLEKYKILNYLKRTRFEFVNKNIPFVPSFTKLYSRIDDLKNSLGIYWKTPKTNDDNKTKEIIDAQIYLLKNIYYGEFLNYFMSNNGNFFEISKEIIELNKNDKRNLKTGFYKLQKFEDIQEKIPKEYLANIQSLYMINAGNQDEEEKDTYIDFIQKIFLKGFMTYLANNGRLSLIYIGSDEETNTSLAEKKQEFDKFLKKYEQNNNIKIPYEINEFLREIKLGNILKYTERLNMFYLILKLLNHKELTNLKGSLEKYQSANKEEAFSDQLELINLLNLDNNRVTEDFELEADEIGKFLDFNGNKVKDNKELKKFDTNKIYFDGENIIKHRAFYNIKKYGMLNLLEKIADKAGYKISIEELKKYSNKKNEIEKNHKMQENLHRKYARPRKDEKFTDEDYESYKQAIENIEEYTHLANKVEFNELNLLQGLLLRILHRLVGYTSIWERDLRFRLKGEFPENQYIEEIFNFENKKNVKYKGGQIVEKYIKFYKELHQNDEVKINKYSSANIKVLKQEKKDLYIRNYIAHFNYIPHAEISLLEVLENLRKLLSYDRKLKNAVMKSVVDILKEYGFVATFKIGADKKIGIQTLESEKIVHLKNLKKKKLMTDRNSEELCKLVKIMFEYKMEEKKSEN", "crRNA-guided target RNA cleavage activity": "reduced target RNA cleavage activity"}
{"molecule": "Arg809Ala: Arg809Ala mutant of LbuCas13a (protein, UniProt C7NBY4 1-1159, looked up, variant R809A) CRISPR-associated …: MKVTKVGGISHKKYTSEGRLVKSESEENRTDERLSALLNMRLDMYIKNPSSTETKENQKRIGKLKKFFSNKMVYLKDNTLSLKNGKKENIDREYSETDILESDVRDKKNFAVLKKIYLNENVNSEELEVFRNDIKKKLNKINSLKYSFEKNKANYQKINENNIEKVEGKSKRNIIYDYYRESAKRDAYVSNVKEAFDKLYKEEDIAKLVLEIENLTKLEKYKIREFYHEIIGRKNDKENFAKIIYEEIQNVNNMKELIEKVPDMSELKKSQVFYKYYLDKEELNDKNIKYAFCHFVEIEMSQLLKNYVYKRLSNISNDKIKRIFEYQNLKKLIENKLLNKLDTYVRNCGKYNYYLQDGEIATSDFIARNRQNEAFLRNIIGVSSVAYFSLRNILETENENDITGRMRGKTVKNNKGEEKYVSGEVDKIYNENKKNEVKENLKMFYSYDFNMDNKNEIEDFFANIDEAISSIRHGIVHFNLELEGKDIFAFKNIAPSEISKKMFQNEINEKKLKLKIFRQLNSANVFRYLEKYKILNYLKRTRFEFVNKNIPFVPSFTKLYSRIDDLKNSLGIYWKTPKTNDDNKTKEIIDAQIYLLKNIYYGEFLNYFMSNNGNFFEISKEIIELNKNDKRNLKTGFYKLQKFEDIQEKIPKEYLANIQSLYMINAGNQDEEEKDTYIDFIQKIFLKGFMTYLANNGRLSLIYIGSDEETNTSLAEKKQEFDKFLKKYEQNNNIKIPYEINEFLREIKLGNILKYTERLNMFYLILKLLNHKELTNLKGSLEKYQSANKEEAFSDQLELINLLNLDNNAVTEDFELEADEIGKFLDFNGNKVKDNKELKKFDTNKIYFDGENIIKHRAFYNIKKYGMLNLLEKIADKAGYKISIEELKKYSNKKNEIEKNHKMQENLHRKYARPRKDEKFTDEDYESYKQAIENIEEYTHLKNKVEFNELNLLQGLLLRILHRLVGYTSIWERDLRFRLKGEFPENQYIEEIFNFENKKNVKYKGGQIVEKYIKFYKELHQNDEVKINKYSSANIKVLKQEKKDLYIRNYIAHFNYIPHAEISLLEVLENLRKLLSYDRKLKNAVMKSVVDILKEYGFVATFKIGADKKIGIQTLESEKIVHLKNLKKKKLMTDRNSEELCKLVKIMFEYKMEEKKSEN", "crRNA-guided target RNA cleavage activity": "reduced target RNA cleavage activity"}
{"molecule": "Tyr938Ala: Tyr938Ala mutant of LbuCas13a (protein, UniProt C7NBY4 1-1159, looked up, variant Y938A) CRISPR-associated …: MKVTKVGGISHKKYTSEGRLVKSESEENRTDERLSALLNMRLDMYIKNPSSTETKENQKRIGKLKKFFSNKMVYLKDNTLSLKNGKKENIDREYSETDILESDVRDKKNFAVLKKIYLNENVNSEELEVFRNDIKKKLNKINSLKYSFEKNKANYQKINENNIEKVEGKSKRNIIYDYYRESAKRDAYVSNVKEAFDKLYKEEDIAKLVLEIENLTKLEKYKIREFYHEIIGRKNDKENFAKIIYEEIQNVNNMKELIEKVPDMSELKKSQVFYKYYLDKEELNDKNIKYAFCHFVEIEMSQLLKNYVYKRLSNISNDKIKRIFEYQNLKKLIENKLLNKLDTYVRNCGKYNYYLQDGEIATSDFIARNRQNEAFLRNIIGVSSVAYFSLRNILETENENDITGRMRGKTVKNNKGEEKYVSGEVDKIYNENKKNEVKENLKMFYSYDFNMDNKNEIEDFFANIDEAISSIRHGIVHFNLELEGKDIFAFKNIAPSEISKKMFQNEINEKKLKLKIFRQLNSANVFRYLEKYKILNYLKRTRFEFVNKNIPFVPSFTKLYSRIDDLKNSLGIYWKTPKTNDDNKTKEIIDAQIYLLKNIYYGEFLNYFMSNNGNFFEISKEIIELNKNDKRNLKTGFYKLQKFEDIQEKIPKEYLANIQSLYMINAGNQDEEEKDTYIDFIQKIFLKGFMTYLANNGRLSLIYIGSDEETNTSLAEKKQEFDKFLKKYEQNNNIKIPYEINEFLREIKLGNILKYTERLNMFYLILKLLNHKELTNLKGSLEKYQSANKEEAFSDQLELINLLNLDNNRVTEDFELEADEIGKFLDFNGNKVKDNKELKKFDTNKIYFDGENIIKHRAFYNIKKYGMLNLLEKIADKAGYKISIEELKKYSNKKNEIEKNHKMQENLHRKYARPRKDEKFTDEDYESYKQAIENIEEATHLKNKVEFNELNLLQGLLLRILHRLVGYTSIWERDLRFRLKGEFPENQYIEEIFNFENKKNVKYKGGQIVEKYIKFYKELHQNDEVKINKYSSANIKVLKQEKKDLYIRNYIAHFNYIPHAEISLLEVLENLRKLLSYDRKLKNAVMKSVVDILKEYGFVATFKIGADKKIGIQTLESEKIVHLKNLKKKKLMTDRNSEELCKLVKIMFEYKMEEKKSEN", "crRNA-guided target RNA cleavage activity": "reduced target RNA cleavage activity"}
